# Experimental data as given in US20230405133A1, “PURIFIED MULTIVALENT PROTEIN-HYALURONIC ACID POLYMER CONJUGATES” (Valitor, Inc., priority 2022, published 2023).
# B1: Conjugate 17 (anti-VEGF VHH SEQ ID NO: 91 on hyaluronic acid, intermediate 1-7) (VHH)
# VHH: DVQLVESGGGLVQPGGSLRLSCAASGRTFSSYSMGWFRQAPGKEREFVVAISKGGYKYDAVSLEGRFTISRDNAKNTVYLQINSLRPEDTAVYYCASSRAYGSSRLRLADTYEYWGQGTLVTVSS
# modifications: peptide bound through the organic linker MP2H to hyaluronic acid (830 kDa); site of attachment not stated
# notes: Multivalent peptide-hyaluronic acid conjugate (MVP); peptide valency 90; Method 1 intermediate; also called BI VHH anti-VEGF MVP
# B2: HuNb42_A88P_aH_CYS (unconjugated) (VHH)
# VHH: QVQLVESGGGLVQPGGSLRLSCAASGFAYSTYSMGWFRQAPGKEREAVATINSGTFRLWYTDSVKGRFTISRDNSKNTLYLQMNSLRPEDTAVYYCAARAWSPYSSTVDAGDFRYWGQGTLVTVSS
# notes: Free peptide, not conjugated to hyaluronic acid
# B3: 2H10_5MUT_aH_CYS (unconjugated) (VHH)
# VHH: QVQLVESGGGLVQPGGSLRLSCLASGRRFSIEAMGWYRQAPGKQRELVAIIDSGGSTDYVDSAKGRFTISRDNSKNTVYLQMNSLRAEDTAVYYCNVIGSSWYGRGLDYWGQGTLVTVSS
# notes: as for B2
# B4: 2H10_5MUT_aH_CYS MVP [140.3] (VHH)
# VHH: B3 VHH
# modifications: C-terminal Cys is the conjugation site
# notes: Multivalent protein-hyaluronic acid conjugate
# B5: Conjugate 13 (anti-VEGF VHH SEQ ID NO: 91 with Rigid linker SEQ ID NO: 31 on hyaluronic acid, intermediate 5-8) (VHH)
# VHH: B1 VHH
# modifications: C-terminal Cys of the peptide linker bound by its thiol to the maleimide of the organic linker MP2H on hyaluronic acid (830 kDa)
# notes: Multivalent peptide-hyaluronic acid conjugate (MVP); peptide valency 72; Method 5 intermediate; also called BI VHH anti-VEGF MVP
# B6: Conjugate 9 (anti-VEGF E1-1 SEQ ID NO: 81 with aH linker SEQ ID NO: 21 on hyaluronic acid, intermediate 5-9) (VHH)
# VHH: EVQLQASGGGFVQPGGSLRLSCAASGGGSDAGTMGWFRQAPGKEREFVSAISWAGTAWRYYADSVKGRFTISRDNSKNTVYLQMNSLRAEDTATYYCALGSYEMDHHYWGQGTQVTVSS
# modifications: C-terminal Cys of the peptide linker bound by its thiol to the maleimide of the organic linker MP2H on hyaluronic acid (830 kDa)
# notes: Multivalent peptide-hyaluronic acid conjugate (MVP); peptide valency 51; Method 5 intermediate
# B7: Conjugate 10 (anti-VEGF E1-1 SEQ ID NO: 81 with aH linker SEQ ID NO: 21 on hyaluronic acid, intermediate 2-4) (VHH)
# VHH: B6 VHH
# modifications: C-terminal Cys of the peptide linker bound by its thiol to the maleimide of the organic linker MP2H on hyaluronic acid (830 kDa)
# notes: Multivalent peptide-hyaluronic acid conjugate (MVP); peptide valency 136; Method 2 intermediate; also called anti-VEGF E1-1 MVP (Method 2)
# B8: Conjugate 23 (anti-VEGF VHH SEQ ID NO: 91 with aH linker SEQ ID NO: 21 on hyaluronic acid, intermediate 1-11) (VHH)
# VHH: B1 VHH
# modifications: C-terminal Cys of the peptide linker bound by its thiol to the maleimide of the organic linker MP2H on hyaluronic acid (830 kDa)
# notes: Multivalent peptide-hyaluronic acid conjugate (MVP); peptide valency 33; Method 1 intermediate; also called BI VHH anti-VEGF MVP
# B9: Conjugate 22 (anti-VEGF VHH SEQ ID NO: 91 with aH linker SEQ ID NO: 21 on hyaluronic acid, intermediate 1-10) (VHH)
# VHH: B1 VHH
# modifications: C-terminal Cys of the peptide linker bound by its thiol to the maleimide of the organic linker MP2H on hyaluronic acid (830 kDa)
# notes: Multivalent peptide-hyaluronic acid conjugate (MVP); peptide valency 18; Method 1 intermediate; also called BI VHH anti-VEGF MVP
# B10: Conjugate 21 (anti-VEGF VHH SEQ ID NO: 91 with aH linker SEQ ID NO: 21 on hyaluronic acid, intermediate 1-9) (VHH)
# VHH: B1 VHH
# modifications: C-terminal Cys of the peptide linker bound by its thiol to the maleimide of the organic linker MP2H on hyaluronic acid (830 kDa)
# notes: Multivalent peptide-hyaluronic acid conjugate (MVP); peptide valency 51; Method 1 intermediate; also called BI VHH anti-VEGF MVP
# B11: Conjugate 19 (anti-VEGF VHH SEQ ID NO: 91 on hyaluronic acid, intermediate 2-6) (VHH)
# VHH: B1 VHH
# modifications: peptide bound through the organic linker MP2H to hyaluronic acid (830 kDa); site of attachment not stated
# notes: Multivalent peptide-hyaluronic acid conjugate (MVP); peptide valency 108; Method 2 intermediate; also called BI VHH anti-VEGF MVP
# B12: Conjugate 3 (anti-VEGF DARPin SEQ ID NO: 92 on hyaluronic acid, intermediate 5-5) (designed binder)
# chain: GSDLDKKLLEAARAGQDDEVRILMANGADVNARDSTGWTPLHLAAPWGHPEIVEVLLKNGADVNAADFQGWTPLHLAAAVGHLEIVEVLLKYGADVNAQDKFGKTAFDISIDNGNEDLAEILQKAAGGGSGGGS
# modifications: peptide bound through the organic linker MP2H to hyaluronic acid (830 kDa); site of attachment not stated
# notes: Multivalent peptide-hyaluronic acid conjugate (MVP); peptide valency 67; Method 5 intermediate; also called DARPin MVP (Method 5)
# B13: Conjugate 14 (anti-VEGF VHH SEQ ID NO: 91 with Rigid linker SEQ ID NO: 31 on hyaluronic acid, intermediate 5-3) (VHH)
# VHH: B1 VHH
# modifications: C-terminal Cys of the peptide linker bound by its thiol to the maleimide of the organic linker MP2H on hyaluronic acid (830 kDa)
# notes: Multivalent peptide-hyaluronic acid conjugate (MVP); peptide valency 68; Method 5 intermediate; also called BI VHH anti-VEGF MVP
# Target: T1, Human VEGF 165 (human, UniProt P15692-4 27-191)
# T1 construct: Loaded on the BLI probe as the ligand; also called BLI ligand Human VEGF 165 (Avi tag, R&D Systems AVI-293-050); not shown: Avi tag
# T1 sequence (P15692 other isoform, or with tags, fused parts or gaps limits assumed): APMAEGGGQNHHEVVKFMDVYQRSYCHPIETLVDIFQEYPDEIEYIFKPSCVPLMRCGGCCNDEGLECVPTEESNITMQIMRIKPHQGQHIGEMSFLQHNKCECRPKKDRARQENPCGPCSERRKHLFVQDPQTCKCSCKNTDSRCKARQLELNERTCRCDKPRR
# Test: BLI, VEGF 165 on probe, t = 0 (repeats Table 15)
row,Kd,Binder
1,4 pM,B1

# Target: T1, Human VEGF 165
# Test: BLI, VEGF binding affinity (KD, nM)
row,binding result,Binder
1,binds,B2
2,binds,B3
3,binds,B4

# Target: T1, Human VEGF 165
# Test: BLI, VEGF 165 on probe, conjugate as analyte, t = 0
row,Kd,Binder
1,0.004 nM,B1
2,0.011 nM,B5
3,0.678 nM,B6
4,0.123 nM,B7

# Target: T1, Human VEGF 165
# Test: BLI, VEGF 165 on probe; sample aged 14 days at 37 °C
row,Kd,Binder
1,0.911 nM,B1
2,1.95 nM,B8
3,0.142 nM,B9
4,1.14 nM,B10

# Target: T1, Human VEGF 165
# Test: BLI, VEGF 165 on probe, t = 0 (repeats Table 15); limit of detection
row,Kd,Binder
1,< 1 pM,B8
2,< 1 pM,B9
3,< 1 pM,B10
4,< 1 pM,B11

# Target: T1, Human VEGF 165
# Test: BLI, VEGF 165 on probe, conjugate as analyte, t = 0; value is the limit of detection
row,Kd,Binder
1,< 1 pM,B8
2,< 1 pM,B9
3,< 1 pM,B10
4,< 1 pM,B11
5,< 1 pM,B12

# Target: T1, Human VEGF 165
# Test: BLI, VEGF 165 on probe; sample aged 4 days at 37 °C
row,Kd,Binder
1,0.713 nM,B1
2,6.96 nM,B8
3,5.87 nM,B9
4,3.3 nM,B10
5,0.185 nM,B11

# Target: T1, Human VEGF 165
# Test: BLI; KD after 14 days at 37 °C against KD at t = 0
row,Change in KD to t = 0,Binder
1,228 fold,B1
2,1950 fold,B8
3,142 fold,B9
4,1140 fold,B10

# Target: T1, Human VEGF 165
# Test: BLI; KD after 4 days at 37 °C against KD at t = 0
row,Change in KD to t = 0,Binder
1,178 fold,B1
2,6960 fold,B8
3,5870 fold,B9
4,3300 fold,B10
5,185 fold,B11

# Target: T1, Human VEGF 165
# Test: BLI, VEGF 165 on probe, conjugate as analyte, t = 0; t = 0, fresh conjugate, not aged
row,Kd,Binder
1,0.203 nM,B13
